Here are results for 10 molecules from patent publication US20130195871A1 (AbbVie / Abbott, published 2013).

Assay [1] deals with T1, Recombinant Human MSP Receptor ECD-His tag (human, UniProt Q04912 25-957).
T1 construct: extracellular domain; bought reagent; also called RON
Kind of assay: SPR (Biacore), N-terminal VD.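 Further: capture of antibodies or DVD-Ig proteins on an anti-mouse IgG chip surface, recombinant antigen injected at 10–200 nM in HBS-EP running buffer at 25 °C.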

The target in the next assay is T2, Recombinant Human IGF1R (human, UniProt P08069 31-932).
T2 construct: bought reagent
Kind of assay: SPR (Biacore), C-terminal VD.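 Further: surface plasmon resonance with DVD-Ig proteins captured on an anti-IgG chip and recombinant antigen flowed over in HBS-EP buffer, Langmuir global fit, KD taken as koff/kon.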 Background: SPR reads the build-up and loss of mass on a sensor chip optically.

Assay [2] addresses T3, EGFR on the cell surface (human, UniProt P00533 25-1210).
T3 construct: whole, on cells
The assay can be described thus: flow cytometry on cells, 2 ug/mL, N-terminal VD.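 Further: cells stained for 30 to 60 min on ice.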
Experimental: (§1) Stable cell lines overexpressing a cell-surface antigen of interest or human tumor cell lines were harvested from tissue culture flasks and resuspended in phosphate buffered saline (PBS) containing 5% fetal bovine serum (PBS/FBS). Prior to staining, human tumor cells were incubated on ice with (100 μl) human IgG at 5 μg/ml in PBS/FCS. 1-5×10⁵ cells were incubated with antibody or DVD-Ig (2 μg/mL) in PBS/FBS for 30-60 minutes on ice. […] After 30 minutes incubation on ice, cells were washed twice and resuspended in PBS/FBS. Fluorescence was measured using a Becton Dickinson FACSCalibur (Becton Dickinson, San Jose, Calif.).
(§2) The geometric mean is the n root of the multiplication product of n fluorescent signals (a1×a2×a3 . . . an). With log-transformed data the geometric mean is used to normalize the weighting of the data distribution.

Assay [3] addresses T3, EGFR on the cell surface. The assay can be described thus: flow cytometry on cells, 2 ug/mL, C-terminal VD. (In flow cytometry, cells or beads pass a laser one at a time.)
Experimental: as §1, §2
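Wherever GEO MEAN is given: cells stained for 30 to 60 min on ice.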

Experimental for Recombinant Human IGF1R: The BIACORE assay (Biacore, Inc, Piscataway, N.J.) determined the affinity of antibodies or DVD-Ig proteins with kinetic measurements of on-rate and off-rate constants. Binding of antibodies or DVD-Ig proteins to a target antigen (for example, a purified recombinant target antigen) was determined by surface plasmon resonance-based measurements with a Biacore® 1000 or 3000 instrument (Biacore AB, Uppsala. Sweden) using running HBS-EP (10 mM HEPES [pH 7.4], 150 mM NaCl, 3 mM EDTA, and 0.005% surfactant P20) at 25° C. […] For example, approximately 5000 RU of goat anti-mouse IgG, (Fcγ), fragment specific polyclonal antibody (Pierce Biotechnology Inc, Rockford, Ill.) diluted in 10 mM sodium acetate (pH 4.5) was directly immobilized across a CM5 research grade biosensor chip using a standard amine coupling kit according to manufacturer's instructions and procedures at 25 μg/ml. Unreacted moieties on the biosensor surface were blocked with ethanolamine. Modified carboxymethyl dextran surface in flowcell 2 and 4 was used as a reaction surface. Unmodified carboxymethyl dextran without goat anti-mouse IgG in flow cell 1 and 3 was used as the reference surface. For kinetic analysis, rate equations derived from the 1:1 Langmuir binding model were fitted simultaneously to association and dissociation phases of all eight injections (using global fit analysis) with the use of Biaevaluation 4.0.1 software. Purified antibodies or DVD-Ig proteins were diluted in HEPES-buffered saline for capture across goat anti-mouse IgG specific reaction surfaces. Antibodies or DVD-Ig proteins to be captured as a ligand (25 μg/ml) were injected over reaction matrices at a flow rate of 5 μl/minute. The association and dissociation rate constants, kₒₙ (M⁻¹s⁻¹) and koff (s⁻¹) were determined under a continuous flow rate of 25 μl/minute. Rate constants were derived by making kinetic binding measurements at different antigen concentrations ranging from 10-200 nM. The equilibrium dissociation constant (M) of the reaction between antibodies or DVD-Ig proteins and the target antigen was then calculated from the kinetic rate constants by the following formula: KD=koff/kₒₙ. Binding was recorded as a function of time and kinetic rate constants were calculated.

B1: DVD2340 (bispecific antibody)
VH: QVQLQESGPGLVKPSEILSLTCTVSGGSISSHYWSWVRQPPGKGLEWIGYIYYSGSTNYNPSLKSRVTISVDTSKNQFSLNLSSVTAADTAVYYCARIPNYYDRSGYYPGYWYFDLWGRGTLVTVSSASTKGPEVQLLESGGGLVQPGGSLRLSCTASGFTFSSYAMNWVRQAPGKGLEWVSAISGSGGTTFYADSVKGRFTISRDNSRTTLYLQMNSLRAEDTAVYYCAKDLGWSDSYYYYYGMDVWGQGTTVTVSS
VL: QAVLTQPSSLSAPPGASASLTCTLRSGFNVDSYRISWYQQKPGSPPQYLLRYKSDSDKQQGSGVPSRFSGSKDASANAGILLISGLQSEDEADYYCMIWHSSAWVFGGGTKLTVLRQPKAAPDIQMTQFPSSLSASVGDRVTITCRASQGIRNDLGWYQQKPGKAPKRLIYAASRLHRGVPSRFSGSGSGTEFTLTISSLQPEDFATYYCLQHNSYPCSFGQGTKLEIK
notes: DVD-Ig, outer AB034 / inner AB011
Turning to B1, in assay [1], the Kd amounted to 23 nM. For the same molecule, the binding result with Recombinant Human IGF1R is “no binding (tested: 10-200 nM)”.

B2: DVD2279 (bispecific antibody)
VH: EVQLVESGGGLVQPGGSLRLSCAASGFTFSIYSMNWVRQAPGKGLEWVSYISSSSSTIYYADSVKGRFTISRDNAKNSLYLQMNSLRDEDTAVYYCARDRGDFDAFDIWGQGTMVTVSSASTKGPEVQLVQSGAEVKKPGSSVKVSCKASGGTFSSYAISWVRQAPGQGLEWMGGIIPIFGTANYAQKFQGRVTITADKSTSTAYMELSSLRSEDTAVYYCARAPLRFLEWSTQDHYYYYYMDVWGKGTTVTVSS
VL: DIQMTQSPSSLSASVGDRVTITCQASQDITNYLNWYQQKPGKAPKLLIYDASNLETGVPSRFSGSGSGTDFTFTISSLQPEDIATYNCQQCENFPITFGQGTRLEIKRTVAAPSSELTQDPAVSVALGQTVRITCQGDSLRSYYATWYQQKPGQAPILVIYGENKRPSGIPDRFSGSSSGNTASLTITGAQAEDEADYYCKSRDGSGQHLVFGGGTKLTVL
notes: DVD-Ig, outer AB063 / inner AB075
In the case of B2, in the assay with Recombinant Human IGF1R, the Kd was found to be 0.047 nM, the koff turned out to be 2.3e-06 s⁻¹ and the kon is 49000 M⁻¹ s⁻¹.

B3: DVD2290 (bispecific antibody)
VH: EVQLVESGGGLVQPGGSLRLSCAASGFSLTNYGVHWVRQAPGKGLEWLGVGWSGGNTDYNTPFTSRLTINKDNSKNTVYLQMNSLRAEDTAVYYCARALTWYDYEFAYWGQGTLVTVSSASTKGPQVQLQESGPGLVKPSETLSLTCTVSGGSVSSGDYYWTWIRQSPGKGLEWIGHIYYSGNTNYNPSLKSRLTISIDTSKTQFSLKLSSVTAADTAIYYCVRDRVTGAFDIWGQGTMVTVSS
VL: DILLTQSPGTLSLSPGERATLSCRASQSIYTNIHWYQQKPGQAPRLLIKYASESISGIPDRFSGSGSGTDFTLTISRLEPEDFAVYYCQQNLNWPTTFGQGTKLEIKRTVAAPDIQMTQSPSSLSASVGDRVTITCQASQDISNYLNWYQQKPGKAPKLLIYDASNLETGVPSRFSGSGSGTDFTFTISSLQPEDIATYFCQHFDHLPLAFGGGTKVEIK
On to B3, for which the “GEO MEAN” value with EGFR on the cell surface [2] and with EGFR on the cell surface [3] was 448 each time.

B4: DVD2291 (bispecific antibody)
VH: QVQLQESGPGLVKPSETLSLTCTVSGGSVSSGDYYWTWIRQSPGKGLEWIGHIYYSGNTNYNPSLKSRLTISIDTSKTQFSLKLSSVTAADTAIYYCVRDRVTGAFDIWGQGTMVTVSSASTKGPEVQLVESGGGLVQPGGSLRLSCAASGFSLTNYGVHWVRQAPGKGLEWLGVGWSGGNTDYNTPFTSRLTINKDNSKNTVYLQMNSLRAEDTAVYYCARALTWYDYEFAYWGQGTLVTVSS
VL: DIQMTQSPSSLSASVGDRVTITCQASQDISNYLNWYQQKPGKAPKLLIYDASNLETGVPSRFSGSGSGTDFTFTISSLQPEDIATYFCQHFDHLPLAFGGGTKVEIKRTVAAPDILLTQSPGTLSLSPGERATLSCRASQSIYTNIHWYQQKPGQAPRLLIKYASESISGIPDRFSGSGSGTDFTLTISRLEPEDFAVYYCQQNLNWPTTFGQGTKLEIK
Regarding B4, the “GEO MEAN” value with EGFR on the cell surface [2] and with EGFR on the cell surface [3] was 541 throughout.

B5: DVD2347 (bispecific antibody)
VH: EVQLVQSGGGLVKPGGSLRLSCAASGFTFSSFAMHWVRQAPGKGLEWISVIDTRGATYYADSVKGRFTISRDNAKNSLYLQMNSLRAEDTAVYYCARLGNFYYGMDVWGQGTTVTVSSASTKGPQVQLQESGPGLVKPSQTLSLTCTVSGYSISSDFAWNWIRQPPGKGLEWMGYISYSGNTRYQPSLKSRITISRDTSKNQFFLKLNSVTAADTATYYCVTAGRGFPYWGQGTLVTVSS
VL: EIVLTQSPGTLSVSPGERATLSCRASQSIGSSLHWYQQKPGQAPRLLIKYASQSLSGIPDRFSGSGSGTDFTLTISRLEPEDFAVYYCHQSSRLPHTFGQGTKVEIKRTVAAPDIQMTQSPSSMSVSVGDRVTITCHSSQDINSNIGWLQQKPGKSFKGLIYHGTNLDDGVPSRFSGSGSGTDYTLTISSLQPEDFATYYCVQYAQFPWTFGGGTKLEIK
B5: the “GEO MEAN” value with EGFR on the cell surface [3] is 9.84.

B6: DVD2336 (bispecific antibody)
VH: QVQLQESGPGLVKPSEILSLTCTVSGGSISSHYWSWVRQPPGKGLEWIGYIYYSGSTNYNPSLKSRVTISVDTSKNQFSLNLSSVTAADTAVYYCARIPNYYDRSGYYPGYWYFDLWGRGTLVTVSSASTKGPEVQLVQSGGGLVKPGGSLRLSCAASGFTFSSFAMHWVRQAPGKGLEWISVIDTRGATYYADSVKGRFTISRDNAKNSLYLQMNSLRAEDTAVYYCARLGNFYYGMDVWGQGTTVTVSS
VL: QAVLTQPSSLSAPPGASASLTCTLRSGFNVDSYRISWYQQKPGSPPQYLLRYKSDSDKQQGSGVPSRFSGSKDASANAGILLISGLQSEDEADYYCMIWHSSAWVFGGGTKLTVLRQPKAAPEIVLTQSPGTLSVSPGERATLSCRASQSIGSSLHWYQQKPGQAPRLLIKYASQSLSGIPDRFSGSGSGTDFTLTISRLEPEDFAVYYCHQSSRLPHTFGQGTKVEIK
notes: DVD-Ig, outer AB034 / inner AB077
Consider B6, for which the Kd in assay [1] came out at 40 nM. The binding result in the assay with Recombinant Human IGF1R was “no binding (tested: 10-200 nM)”.

B7: DVD2343 (bispecific antibody)
VH: EVQLVESGGGLVQPGGSLRLSCAASGFTFTDYTMDWVRQAPGKGLEWVADVNPNSGGSIYNQRFKGRFTLSVDRSKNTLYLQMNSLRAEDTAVYYCARNLGPSFYFDYWGQGTLVTVSSASTKGPQVQLQESGPGLVKPSQTLSLTCTVSGYSISSDFAWNWIRQPPGKGLEWMGYISYSGNTRYQPSLKSRITISRDTSKNQFFLKLNSVTAADTATYYCVTAGRGFPYWGQGTLVTVSS
VL: DIQMTQSPSSLSASVGDRVTITCKASQDVSIGVAWYQQKPGKAPKLLIYSASYRYTGVPSRFSGSGSGTDFTLTISSLQPEDFATYYCQQYYIYPYTFGQGTKVEIKRTVAAPDIQMTQSPSSMSVSVGDRVTITCHSSQDINSNIGWLQQKPGKSFKGLIYHGTNLDDGVPSRFSGSGSGTDYTLTISSLQPEDFATYYCVQYAQFPWTFGGGTKLEIK
On to B7, for which, in the assay with EGFR on the cell surface [3], the “GEO MEAN” value was determined as 6.47.

B8: DVD2324 (bispecific antibody)
VH: EVQLVQSGGGLVKPGGSLRLSCAASGFTFSSYAMHWVRQAPGKGLEWVAVISYDGSNKYYADSVKGRFTISRDNSKNTLYLQMNSLRAEDTAVYYCARFSGWPNNYYYYGMDVWGQGTTVTVSSASTKGPEVQLVQSGGGLVKPGGSLRLSCAASGFTFSSFAMHWVRQAPGKGLEWISVIDTRGATYYADSVKGRFTISRDNAKNSLYLQMNSLRAEDTAVYYCARLGNFYYGMDVWGQGTTVTVSS
VL: DVVMTQSPLSLPVTPGEPASISCRSSQSLLHSNGFNYVDWYLQKPGQSPHLLIYFGSYRASGVPDRFSGSGSGTDFTLKISRVEAEDVGVYYCMQALQTPPWTFGQGTKVEIRRTVAAPEIVLTQSPGTLSVSPGERATLSCRASQSIGSSLHWYQQKPGQAPRLLIKYASQSLSGIPDRFSGSGSGTDFTLTISRLEPEDFAVYYCHQSSRLPHTFGQGTKVEIK
notes: DVD-Ig, outer AB005 / inner AB077
Regarding B8, in assay [1], the Kd was 21 nM, the koff was 0.00093 s⁻¹ and the kon was determined as 44000 M⁻¹ s⁻¹. For the same molecule, the binding result in the assay with Recombinant Human IGF1R was “no binding (tested: 10-200 nM)”.

B9: DVD2283 (bispecific antibody)
VH: QVQLQQWGAGLLKPSETLSLTCAVYGGSFSGYYWSWIRQPPGKGLEWIGEINHSGSTNYNPSLKSRVTISVETSKNQFSLKLSSVTAADTAVYYCARDKWTWYFDLWGRGTLVTVSSASTKGPEVQLVQSGAEVKKPGSSVKVSCKASGGTFSSYAISWVRQAPGQGLEWMGGIIPIFGTANYAQKFQGRVTITADKSTSTAYMELSSLRSEDTAVYYCARAPLRFLEWSTQDHYYYYYMDVWGKGTTVTVSS
VL: DIEMTQSPDSLAVSLGERATINCRSSQSVLYSSSNRNYLAWYQQNPGQPPKLLIYWASTRESGVPDRFSGSGSGTDFTLTISSLQAEDVAVYYCQQYYSTPRTFGQGTKVEIKRTVAAPSSELTQDPAVSVALGQTVRITCQGDSLRSYYATWYQQKPGQAPILVIYGENKRPSGIPDRFSGSSSGNTASLTITGAQAEDEADYYCKSRDGSGQHLVFGGGTKLTVL
notes: DVD-Ig, outer AB062 / inner AB075
With B9, in the assay with Recombinant Human IGF1R, the Kd stood at 5 nM, the dissociation rate constant (koff) came to 0.00012 s⁻¹ and the kon came to 25000 M⁻¹ s⁻¹.

B10: DVD2326 (bispecific antibody)
VH: EVQLVQSGGGLVKPGGSLRLSCAASGFTFSSYAMHWVRQAPGKGLEWVAVISYDGSNKYYADSVKGRFTISRDNSKNTLYLQMNSLRAEDTAVYYCARFSGWPNNYYYYGMDVWGQGTTVTVSSASTKGPEVQLLESGGGLVQPGGSLRLSCTASGFTFSSYAMNWVRQAPGKGLEWVSAISGSGGTTFYADSVKGRFTISRDNSRTTLYLQMNSLRAEDTAVYYCAKDLGWSDSYYYYYGMDVWGQGTTVTVSS
VL: DVVMTQSPLSLPVTPGEPASISCRSSQSLLHSNGFNYVDWYLQKPGQSPHLLIYFGSYRASGVPDRFSGSGSGTDFTLKISRVEAEDVGVYYCMQALQTPPWTFGQGTKVEIRRTVAAPDIQMTQFPSSLSASVGDRVTITCRASQGIRNDLGWYQQKPGKAPKRLIYAASRLHRGVPSRFSGSGSGTEFTLTISSLQPEDFATYYCLQHNSYPCSFGQGTKLEIK
notes: DVD-Ig, outer AB005 / inner AB011
Turning to B10, in assay [1], the Kd came out at 21 nM and the koff is 0.00091 s⁻¹. Besides, in the assay with Recombinant Human IGF1R, the binding result is recorded as “no binding (tested: 10-200 nM)”.

As usually defined, the Kd is the constant that tells how readily two partners part at equilibrium. The term koff denotes the first-order rate constant of dissociation. The kon is the rate constant with which the complex forms.
